{
  "source": "the Human Domainome abundance scans (Beltran et al. 2025)",
  "parents": {"B1": {"name": "MEF2-activating motif and SAP domain-containing transcriptional regulator, residues 170 to 204; numbered along this chain, Q6ZN01 (parent)", "chain": "LKLEELTVSELRQQLRLRGLPVSGTKSMLLERMRG"}},
  "note": "± gives the uncertainty stated by the source.",
  "data": [
    {"variants_of": "B1", "assay": "abundance fitness (aPCA) (normalised: wild type 0, dead -1); higher = more abundant; growth selection in yeast, the domain comes from the species named", "conditions": "Homo sapiens", "values": [
      {"variant": "LKLEELTVSELRQQLRLRGLPVSGTKSMLLERMWG", "note": "[R34W]", "abundance fitness": "-0.556 ± 0.071"},
      {"variant": "LKLEELTVSELRQQLRLRGLPVSGTKSMLLERMEG", "note": "[R34E]", "abundance fitness": "-0.089 ± 0.093"},
      {"variant": "LKLEELTVSELRQQLRLRGLPVSGTKSMLLERMMG", "note": "[R34M]", "abundance fitness": "-0.416 ± 0.49"},
      {"variant": "LKLEELTVSELRQQLRLRGLPVSGTKSMLLERMFG", "note": "[R34F]", "abundance fitness": "-0.516 ± 0.099"},
      {"variant": "LKLEELTVSELRQQLRLRGLPVSGTKSMLLERMYG", "note": "[R34Y]", "abundance fitness": "-0.316 ± 0.08"},
      {"variant": "LKLEELTVSELRQQLRLRGLPVSGTKSMLLERMAG", "note": "[R34A]", "abundance fitness": "-0.118 ± 0.068"},
      {"variant": "LKLEELTVSELRQQLRLRGLPVSGTKSMLLERMDG", "note": "[R34D]", "abundance fitness": "-0.396 ± 0.2"},
      {"variant": "LKLEELTVSELRQQLRLRGLPVSGTKSMLLERMCG", "note": "[R34C]", "abundance fitness": "-0.021 ± 0.21"},
      {"variant": "LKLEELTVSELRQQLRLRGLPVSGTKSMLLERMSG", "note": "[R34S]", "abundance fitness": "-0.064 ± 0.089"},
      {"variant": "LKLEELTVSELRQQLRLRGLPVSGTKSMLLERMQG", "note": "[R34Q]", "abundance fitness": "0.156 ± 0.068"},
      {"variant": "LKLEELTVSELRQQLRLRGLPVSGTKSMLLERMIG", "note": "[R34I]", "abundance fitness": "-0.323 ± 0.29"},
      {"variant": "LKLEELTVSELRQQLRLRGLPVSGTKSMLLERMLG", "note": "[R34L]", "abundance fitness": "-0.068 ± 0.15"},
      {"variant": "LKLEELTVSELRQQLRLRGLPVSGTKSMLLERMNG", "note": "[R34N]", "abundance fitness": "0.21 ± 0.12"},
      {"variant": "LKLEELTVSELRQQLRLRGLPVSGTKSMLLERMTG", "note": "[R34T]", "abundance fitness": "-0.045 ± 0.079"},
      {"variant": "LKLEELTVSELRQQLRLRGLPVSGTKSMLLERMVG", "note": "[R34V]", "abundance fitness": "-0.244 ± 0.1"},
      {"variant": "LKLEELTVSELRQQLRLRGLPVSGTKSMYLERMRG", "note": "[L29Y]", "abundance fitness": "-0.469 ± 0.19"},
      {"variant": "LKLEELTVSELRQQLRLRGLPVSGTKSMLLELMRG", "note": "[R32L]", "abundance fitness": "-0.485 ± 0.098"},
      {"variant": "LKLEELTVSELRQQLRLRGLPVSGTKSMLLEIMRG", "note": "[R32I]", "abundance fitness": "-0.507 ± 0.12"},
      {"variant": "LKLEELTVSELRQQLRLRGLPVSGTKSMLLEGMRG", "note": "[R32G]", "abundance fitness": "-0.326 ± 0.067"},
      {"variant": "LKLEELTVSELRQQLRLRGLPVSGTKSMLLEAMRG", "note": "[R32A]", "abundance fitness": "-0.459 ± 0.11"},
      {"variant": "LKLEELTVSELRQQLRLRGLPVSGTKSMLLEEMRG", "note": "[R32E]", "abundance fitness": "-0.219 ± 0.1"},
      {"variant": "LKLEELTVSELRQQLRLRGLPVSGTKSMLLEQMRG", "note": "[R32Q]", "abundance fitness": "-0.232 ± 0.1"},
      {"variant": "LKLEELTVSELRQQLRLRGLPVSGTKSMLLEWMRG", "note": "[R32W]", "abundance fitness": "-0.554 ± 0.074"},
      {"variant": "LKLEELTVSELRQQLRLRGLPVSGTKSMLLENMRG", "note": "[R32N]", "abundance fitness": "-0.02 ± 0.19"},
      {"variant": "LKLEELTVSELRQQLRLRGLPVSGTKSMLLEVMRG", "note": "[R32V]", "abundance fitness": "-0.368 ± 0.12"},
      {"variant": "LKLEELTVSELRQQLRLRGLPVSGTKSMLLEKMRG", "note": "[R32K]", "abundance fitness": "-0.545 ± 0.16"},
      {"variant": "LKLEELTVSELRQQLRLRGLPVSGTKSMLLESMRG", "note": "[R32S]", "abundance fitness": "-0.483 ± 0.11"},
      {"variant": "LKLEELTVSELRQQLRLRGLPVSGTKSMLLEMMRG", "note": "[R32M]", "abundance fitness": "-0.369 ± 0.23"},
      {"variant": "LKLEELTVSELRQQLRLRGLPVSGTKSMLLECMRG", "note": "[R32C]", "abundance fitness": "-0.611 ± 0.13"},
      {"variant": "LKLEELTVSELRQQLRLRGLPVSGTKSMLLETMRG", "note": "[R32T]", "abundance fitness": "0 ± 0.1"},
      {"variant": "LKLEELTVSELRQQLRLRGLPVSGTKSMLLNRMRG", "note": "[E31N]", "abundance fitness": "-0.238 ± 0.11"},
      {"variant": "LKLEELTVSELRQQLRLRGLPVSGTKSMLLPRMRG", "note": "[E31P]", "abundance fitness": "-0.992 ± 0.42"},
      {"variant": "LKLEELTVSELRQQLRLRGLPVSGTKSMLLGRMRG", "note": "[E31G]", "abundance fitness": "-0.279 ± 0.061"},
      {"variant": "LKLEELTVSELRQQLRLRGLPVSGTKSMLLQRMRG", "note": "[E31Q]", "abundance fitness": "-0.227 ± 0.06"},
      {"variant": "LKLEELTVSELRQQLRLRGLPVSGTKSMLLSRMRG", "note": "[E31S]", "abundance fitness": "-0.27 ± 0.089"},
      {"variant": "LKLEELTVSELRQQLRLRGLPVSGTKSMLLVRMRG", "note": "[E31V]", "abundance fitness": "-1.16 ± 0.23"},
      {"variant": "LKLEELTVSELRQQLRLRGLPVSGTKSMLLCRMRG", "note": "[E31C]", "abundance fitness": "-0.745 ± 0.46"},
      {"variant": "LKLEELTVSELRQQLRLRGLPVSGTKSMLLWRMRG", "note": "[E31W]", "abundance fitness": "-0.755 ± 0.18"},
      {"variant": "LKLEELTVSELRQQLRLRGLPVSGTKSMLLMRMRG", "note": "[E31M]", "abundance fitness": "-0.343 ± 0.13"},
      {"variant": "LKLEELTVSELRQQLRLRGLPVSGTKSMLLTRMRG", "note": "[E31T]", "abundance fitness": "-0.348 ± 0.096"},
      {"variant": "LKLEELTVSELRQQLRLRGLPVSGTKSMLLLRMRG", "note": "[E31L]", "abundance fitness": "-0.503 ± 0.072"},
      {"variant": "LKLEELTVSELRQQLRLRGLPVSGTKSMLLYRMRG", "note": "[E31Y]", "abundance fitness": "-0.124 ± 0.18"},
      {"variant": "LKLEELTVSELRQQLRLRGLPVSGTKSMLLERTRG", "note": "[M33T]", "abundance fitness": "-0.525 ± 0.099"},
      {"variant": "LKLEELTVSELRQQLRLRGLPVSGTKSMLLERFRG", "note": "[M33F]", "abundance fitness": "-0.516 ± 0.091"},
      {"variant": "LKLEELTVSELRQQLRLRGLPVSGTKSMLLERQRG", "note": "[M33Q]", "abundance fitness": "0.04 ± 0.25"},
      {"variant": "LKLEELTVSELRQQLRLRGLPVSGTKSMLLERARG", "note": "[M33A]", "abundance fitness": "-0.161 ± 0.08"},
      {"variant": "LKLEELTVSELRQQLRLRGLPVSGTKSMLLERGRG", "note": "[M33G]", "abundance fitness": "-0.343 ± 0.078"},
      {"variant": "LKLEELTVSELRQQLRLRGLPVSGTKSMLLERLRG", "note": "[M33L]", "abundance fitness": "0.206 ± 0.1"},
      {"variant": "LKLEELTVSELRQQLRLRGLPVSGTKSMLLERERG", "note": "[M33E]", "abundance fitness": "-0.146 ± 0.091"},
      {"variant": "LKLEELTVSELRQQLRLRGLPVSGTKSMLLERNRG", "note": "[M33N]", "abundance fitness": "-0.613 ± 0.34"},
      {"variant": "LKLEELTVSELRQQLRLRGLPVSGTKSMLLERRRG", "note": "[M33R]", "abundance fitness": "-0.66 ± 0.084"},
      {"variant": "LKLEELTVSELRQQLRLRGLPVSGTKSMLLERSRG", "note": "[M33S]", "abundance fitness": "-0.34 ± 0.065"},
      {"variant": "LKLEELTVSELRQQLRLRGLPVSGTKSMLLERWRG", "note": "[M33W]", "abundance fitness": "-0.538 ± 0.11"},
      {"variant": "LKLEELTVSELRQQLRLRGLPVSGTKSMLLERCRG", "note": "[M33C]", "abundance fitness": "-0.235 ± 0.077"},
      {"variant": "LKLEELTVSELRQQLRLRGLPVSGTKSMLMERMRG", "note": "[L30M]", "abundance fitness": "-0.179 ± 0.097"},
      {"variant": "LKLEELTVSELRQQLRLRGLPVSGTKSMLQERMRG", "note": "[L30Q]", "abundance fitness": "0.004 ± 0.084"},
      {"variant": "LKLEELTVSELRQQLRLRGLPVSGTKSMLAERMRG", "note": "[L30A]", "abundance fitness": "-0.356 ± 0.069"},
      {"variant": "LKLEELTVSELRQQLRLRGLPVSGTKSMLCERMRG", "note": "[L30C]", "abundance fitness": "-0.197 ± 0.17"},
      {"variant": "LKLEELTVSELRQQLRLRGLPVSGTKSMLYERMRG", "note": "[L30Y]", "abundance fitness": "-0.915 ± 0.2"},
      {"variant": "LKLEELTVSELRQQLRLRGLPVSGTKSMLKERMRG", "note": "[L30K]", "abundance fitness": "-0.23 ± 0.11"},
      {"variant": "LKLEELTVSELRQQLRLRGLPVSGTKSMLGERMRG", "note": "[L30G]", "abundance fitness": "-0.493 ± 0.09"},
      {"variant": "LKLEELTVSELRQQLRLRGLPVSGTKSMLRERMRG", "note": "[L30R]", "abundance fitness": "-0.283 ± 0.07"},
      {"variant": "LKLEELTVSELRQQLRLRGLPVSGTKSMLIERMRG", "note": "[L30I]", "abundance fitness": "0.394 ± 0.25"},
      {"variant": "LKLEELTVSELRQQLRLRGLPVSGTKSMLPERMRG", "note": "[L30P]", "abundance fitness": "-0.507 ± 0.066"},
      {"variant": "LKLEELTVSELRQQLRLRGLPVSGTKSMLTERMRG", "note": "[L30T]", "abundance fitness": "-0.257 ± 0.068"},
      {"variant": "LKLEELTVSELRQQLRLRGLPVSGTKSMLDERMRG", "note": "[L30D]", "abundance fitness": "-0.376 ± 0.13"},
      {"variant": "LKLEELTVSELRQQLRLRGLPVSGTKSMLVERMRG", "note": "[L30V]", "abundance fitness": "-0.099 ± 0.07"},
      {"variant": "LKLEELTVSELRQQLRLRGLPVSGTKSMLWERMRG", "note": "[L30W]", "abundance fitness": "-0.456 ± 0.17"},
      {"variant": "LKLEELTVSELRQQLRLRGLPVSGTKSMLSERMRG", "note": "[L30S]", "abundance fitness": "-0.601 ± 0.081"},
      {"variant": "LKLEELTVSELRQQLRLRGLPVSGTKSMLEERMRG", "note": "[L30E]", "abundance fitness": "-0.251 ± 0.091"}
    ]}
  ]
}
